Article doi:10.1101/2020.10.08.331538 (bioRxiv, 2020)
“And” between values parts separate entries of the source, which are not always exact repeats. Equal values may be shown once.

Experiments:
[1] = target: Pv-M17Δ53-78, Pv-M17 N-terminal loop deletion mutant (Plasmodium vivax) (UniProt A5K3U9); assay: crystal structure
[2] = target: the molecule itself; assay: AUC
[3] = target: the molecule itself; assay: AUC; remark: listed apart in the source
[4] = target: the molecule itself; assay: SEC-MALS
[5] = target: the molecule itself; assay: SEC
[6] = target: the molecule itself; assay: AUC; remark: listed apart in the source

**Q.** With “Pv-M17Δ53-78, Pv-M17 N-terminal loop deletion mutant (from UniProt A5K3U9 73-621) (enzyme)” as the molecule, how does the stoichiometry N [1] read?
**A.** 6

B1: PfA-M17, M17 aminopeptidase from Plasmodium falciparum, wild type (enzyme)
chain: MASEVPQVVSLDPTSIPIEYNTPIHDIKVQVYDIKGGCNVEEGLTIFLVNNPGKENGPVKISSKVNDKNVSEFLKDENMEKFNVKLGTSKHFYMFNDNKNSVAVGYVGCGSVADLSEADMKRVVLSLVTMLHDNKLSKLTVVFEINVDKNLFRFFLETLFYEYMTDERFKSTDKNVNMEYIKHLGVYINNADTYKEEVEKARVYYFGTYYASQLIAAPSNYCNPVSLSNAAVELAQKLNLEYKILGVKELEELKMGAYLSVGKGSMYPNKFIHLTYKSKGDVKKKIALVGKGITFDSGGYNLKAAPGSMIDLMKFDMSGCAAVLGCAYCVGTLKPENVEIHFLSAVCENMVSKNSYRPGDIITASNGKTIEVGNTDAEGRLTLADALVYAEKLGVDYIVDIATLTGAMLYSLGTSYAGVFGNNEELINKILNSSKTSNEPVWWLPIINEYRATLNSKYADINNISSSVKASSIVASLFLKEFVQNTAWAHIDIAGVSWNFKARKPKGFGVRLLTEFVLNDAL
**Q.** Which results are given for B1?
**A.** stoichiometry N [2]: 2; stoichiometry N [3]: 6; stoichiometry N [4]: ~6

B2: PfA-M17 (D379A + E461L) (enzyme)
chain: MASEVPQVVSLDPTSIPIEYNTPIHDIKVQVYDIKGGCNVEEGLTIFLVNNPGKENGPVKISSKVNDKNVSEFLKDENMEKFNVKLGTSKHFYMFNDNKNSVAVGYVGCGSVADLSEADMKRVVLSLVTMLHDNKLSKLTVVFEINVDKNLFRFFLETLFYEYMTDERFKSTDKNVNMEYIKHLGVYINNADTYKEEVEKARVYYFGTYYASQLIAAPSNYCNPVSLSNAAVELAQKLNLEYKILGVKELEELKMGAYLSVGKGSMYPNKFIHLTYKSKGDVKKKIALVGKGITFASGGYNLKAAPGSMIDLMKFDMSGCAAVLGCAYCVGTLKPENVEIHFLSAVCENMVSKNSYRPGDIITASNGKTIEVGNTDALGRLTLADALVYAEKLGVDYIVDIATLTGAMLYSLGTSYAGVFGNNEELINKILNSSKTSNEPVWWLPIINEYRATLNSKYADINNISSSVKASSIVASLFLKEFVQNTAWAHIDIAGVSWNFKARKPKGFGVRLLTEFVLNDAL
**Q.** Does B2 bind [2]?
**A.** binds

B3: Pv-M17, M17 aminopeptidase from Plasmodium vivax, wild type (residues 73 – 621) (enzyme)
chain: MATTVPQVVSLDPTTIPIDYHTPIDDLSIEVKDISAEACPADEGLIVFLLNSAPKHSSSGGSGGNGGSAGSSGNGEGGAQIKINSSVKDNTINEFLKEGNMENFTGKLGTSKSFYIANDQKKYVSLAYVGCGPANEETELEIRKVAYALVTLLHDSKHKKVSIIFEIKIEEALFRFFLEHLFYEYVTDERFKSADKSTETDFIKNLSLHIANADAYKGQIDKARVYFYGTYYAAQLIAAPSNYCNPVSLSNAAVELAQKVNLECKILDVKELEELKMGAYLSVGKGSMYPNKFIHLTYKGAQTGASQNEKKKIALIGKGITFDSGGYNLKAAPGSMIDLMKFDMSGCAAVLGCAYCIGTIKPDNVEVHFLSAVCENMVSKNSYRPGDIITASNGKTIEVGNTDAEGRLTLADALVYAEKLGVDYIVDIATLTGAMLYSLGTSYAGVFGNNDQLINKILSSSKTSNEPVWWLPIINEYRSSLNSKYADLNNISSSVKASSVVASLFLKEFIENTPWAHIDIAGVSWNFKARKPKGFGVRLLTEFVLNDAV
**Q.** With B3 as the molecule, how does the “stoichiometry N” value [5] read?
**A.** 4

**Q.** And the “stoichiometry N” value [2]?
**A.** 2

**Q.** What about the “stoichiometry N” value [6] of the same molecule?
**A.** 6

**Q.** And the “stoichiometry N” value [4]?
**A.** ~6 and ~2
